T1: Mcl-1, Q07820
T1 chain: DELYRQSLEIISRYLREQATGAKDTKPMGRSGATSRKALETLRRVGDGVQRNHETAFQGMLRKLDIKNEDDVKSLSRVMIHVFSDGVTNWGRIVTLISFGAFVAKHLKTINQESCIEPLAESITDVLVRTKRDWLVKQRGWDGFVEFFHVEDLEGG


Biological target: T1, Mcl-1, Q07820
Test: peptide SPOT array, c-Myc-tagged receptor at 1 uM or 100 nM, anti-c-Myc-Cy3

Binder | SPOT signal as a fraction of Bim BH3's signal on the same receptor and array
QQMHHNAATADAQRADMLRGLSPRES [NCOR2] | 0.01
AFTEREASEIMKSILEAIQYLHSINI [MAPKAPK2] | 0.01
PPDAHVLGKADEAAGQDFSLDLRSTG [CIITA] | 0.01
VILADPDGHEDCFVGDEAFRELSKMD [GLOD4] | 0.01
LSPGRSVTAGDIIVGDEILKGHTQDT [FLAD1] | 0.01
RDPQGWVAGNLSARGDGAAGFTLPGF | 0.02
DEHISYVATKDCHLGDQLEGVNTPRQ | 0.01
DEHISYVATKVCHLLDQLEGVNTPRQ | 0.02
KNIAGALAFWDANASELLNFIKQDRD [MLLT4] | 0.02
RDPQGWVAGNLSARLDGAAGFTLPGF | 0.02
SVRYYPSGDAFASGSDDATCRLYDLR | 0.02
ISDVQVFGYSLRFNADLLRSAVQQVN [DBC1] | 0.02
RHFVIRRGQVLREIAEEYGGVMVSFP [HDLBP] | 0.04
RGAMLSLATGLAHSGSDLSLLVPEIE [FAM115A] | 0.06
FRFAQLCGLHDVIHADELEELMCYYQ [CLTCL1] | 0.02
KLPVVGIGKHDCGMATDLALRCLVET [CCDC76] | 0.01
SKFVILSAHKLVFIGDTLTRQVTAQD [NEDD9] | 0.04
HPRRESQVRQLAWIGDGVWVSIRLDS | 0.02
HPRRESQVRQLAWILDGVWVSIRLDS | 0.03
EKVLIFGGDILKFAGDALLALWRVER [ADCY10] | 0.02
CDLLGAKGKDILYILDHIFGDILKSK [NT5C2] | 0.06
SVRYYPSGDADASGSDDATCRLYDLR | 0.01
VDFYQPTCIVDQCGADSLGCDRLGCF [HDAC3] | 0.01

The next lines start with the values.

SPOT signal as a fraction of Bim BH3's signal on the same receptor and array | Binder
0.08 | RVSWNITGTVLASSGDDGCVRLWKAN [SEH1L]
0.01 | GKPETCTGQDLADLLDRLRDWFQLLH
0.03 | LNAVNYISTVDADWADNVFFLQLQQA
0.02 | HPRKESQVRQDAWVGDGVWVSIRLDS [SPAG9]
0.17 | SRQPRDFGDSDARGGKGFLRGVVGGV [VPS13C]
0.02 | DLSAVTLSREDQAMAEQLAENYHNTW [RYR1]
0.01 | GKPETCTGQDLADLGDRLRDWFQLLH
0.01 | LGLGELAGLTVANEADSLTYDIANNK [STRN]
0.02 | IGFFIAFGIAMGKMGDQAKLMVDFFN [SLC1A2]
0.07 | AKFLLYLGHSLSTWGDRMWHFAVSVF [SLC40A1]
0.1 | CILNSFYGYVDRKGARWYSMEMAGIV [POLE]
0.03 | QLSKPGAALYLQSILEGFKEAVQYVL [SOS1]
0.02 | VLSRIEAGRSLKSVADEFGISKSTFY [TIGD7_3eA]
0.01 | CALIAGATLHDAWLGDSQVILVQQGQ
0.01 | CALIAGATLHVAWLGDSQVILVQQGQ
0.02 | SHALICISHWILGILDRHLNNFMVAM [PRKDC]
0.11 | NKTMTQLSSTLARCAKDILGFAVMFF [PKD2L1]
0.03 | LNAVNYISTVLADWLDNVFFLQLQQA

The binders below were run against Bcl-xL, Q07817 in the same assay as above.
Chain of Bcl-xL, Q07817 (Q07817 1-209): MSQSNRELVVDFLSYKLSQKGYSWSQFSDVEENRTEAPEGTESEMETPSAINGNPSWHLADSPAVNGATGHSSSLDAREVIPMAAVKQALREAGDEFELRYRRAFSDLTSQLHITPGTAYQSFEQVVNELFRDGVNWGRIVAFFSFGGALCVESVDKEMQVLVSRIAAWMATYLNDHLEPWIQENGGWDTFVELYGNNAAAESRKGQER

Binder | SPOT signal as a fraction of Bim BH3's signal on the same receptor and array
QQMHHNAATADAQRADMLRGLSPRES [NCOR2] | 0.02
AFTEREASEIMKSILEAIQYLHSINI [MAPKAPK2] | 0.02
PPDAHVLGKADEAAGQDFSLDLRSTG [CIITA] | 0.01
VILADPDGHEDCFVGDEAFRELSKMD [GLOD4] | 0.01
LSPGRSVTAGDIIVGDEILKGHTQDT [FLAD1] | 0.01
RDPQGWVAGNLSARGDGAAGFTLPGF | 0.02
DEHISYVATKDCHLGDQLEGVNTPRQ | 0.02
DEHISYVATKVCHLLDQLEGVNTPRQ | 0.02
KNIAGALAFWDANASELLNFIKQDRD [MLLT4] | 0.02
RDPQGWVAGNLSARLDGAAGFTLPGF | 0.02
SVRYYPSGDAFASGSDDATCRLYDLR | 0.02
ISDVQVFGYSLRFNADLLRSAVQQVN [DBC1] | 0.02
RHFVIRRGQVLREIAEEYGGVMVSFP [HDLBP] | 0.05
RGAMLSLATGLAHSGSDLSLLVPEIE [FAM115A] | 0.09
FRFAQLCGLHDVIHADELEELMCYYQ [CLTCL1] | 0.02
KLPVVGIGKHDCGMATDLALRCLVET [CCDC76] | 0.01
SKFVILSAHKLVFIGDTLTRQVTAQD [NEDD9] | 0.05
HPRRESQVRQLAWIGDGVWVSIRLDS | 0.03
HPRRESQVRQLAWILDGVWVSIRLDS | 0.03
EKVLIFGGDILKFAGDALLALWRVER [ADCY10] | 0.04
CDLLGAKGKDILYILDHIFGDILKSK [NT5C2] | 0.06
SVRYYPSGDADASGSDDATCRLYDLR | 0.01
VDFYQPTCIVDQCGADSLGCDRLGCF [HDAC3] | 0.01

The next lines start with the values.

SPOT signal as a fraction of Bim BH3's signal on the same receptor and array | Binder
0.3 | RVSWNITGTVLASSGDDGCVRLWKAN [SEH1L]
0.02 | GKPETCTGQDLADLLDRLRDWFQLLH
0.02 | LNAVNYISTVDADWADNVFFLQLQQA
0.02 | HPRKESQVRQDAWVGDGVWVSIRLDS [SPAG9]
0.48 | SRQPRDFGDSDARGGKGFLRGVVGGV [VPS13C]
0.02 | DLSAVTLSREDQAMAEQLAENYHNTW [RYR1]
0.02 | GKPETCTGQDLADLGDRLRDWFQLLH
0.02 | LGLGELAGLTVANEADSLTYDIANNK [STRN]
0.02 | IGFFIAFGIAMGKMGDQAKLMVDFFN [SLC1A2]
0.1 | AKFLLYLGHSLSTWGDRMWHFAVSVF [SLC40A1]
0.09 | CILNSFYGYVDRKGARWYSMEMAGIV [POLE]
0.03 | QLSKPGAALYLQSILEGFKEAVQYVL [SOS1]
0.95 | VLSRIEAGRSLKSVADEFGISKSTFY [TIGD7_3eA]
0.02 | CALIAGATLHDAWLGDSQVILVQQGQ
0.02 | CALIAGATLHVAWLGDSQVILVQQGQ
0.03 | SHALICISHWILGILDRHLNNFMVAM [PRKDC]
0.15 | NKTMTQLSSTLARCAKDILGFAVMFF [PKD2L1]
0.02 | LNAVNYISTVLADWLDNVFFLQLQQA

From paper PMC4072508, “Genome-Wide Prediction and Validation of Peptides That Bind Human Prosurvival Bcl-2 Proteins” (PLoS Computational Biology, 2014)
